# Laboratory results published in article PMC7954794, “Protein context shapes the specificity of SH3 domain-mediated interactions in vivo” (Nature Communications, 2021).
# System: PPIs identified as affected by the SH3 domain deletions
# Experiment: Liquid DHFR-PCA low-throughput validation of PPIs affected by SH3 deletion (Fig. S1D-E)
# Format: cell-based, Saccharomyces cerevisiae
# Conditions: label = prey, liquid DHFR-PCA, prey _1 = lost, _2 = gained in screen
# Method in brief: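 Growth at 30 °C was tracked by OD each 15 min over 72 h in agar-free PCA selection medium, starting at 0.1 OD. Cells were diploids selected after mating, first cultured 48 h with NAT and HPH in synthetic complete MSG medium, pH 6.0.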
Molecule,Ratio (Deletedscore / WTscore) (bait BEM1-1),Ratio (Deletedscore / WTscore) (bait BEM1-2),Ratio (Deletedscore / WTscore) (bait RVS167),Ratio (Deletedscore / WTscore) (bait MYO3),Ratio (Deletedscore / WTscore) (bait MYO5),also measured
"YMR109W_1 (protein, UniProt Q04439 1-1219, looked up) Myosin-5: MAILKRGARKKVHQEPAKRSANIKKATFDSSKKKEVGVSDLTLLSKISDEAINENLKKRFLNATIYTYIGHVLISVNPFRDLGIYTDAVMNEYKGKNRLEVPPHVFAIAESMYYNMKSYNENQCVIISGESGAGKTEAAKRIMQYIAAASSTHTESIGKIKDMVLATNPLLESFGCAKTLRNNNSSRHGKYLEIKFNNQFEPCAGNITNYLLEKQRVVSQIKNERNFHIFYQFTKGASDAYRQTFGVQKPEQYVYTAAAGCISAETIDDLQDYQETLKAMRVIGLGQEEQDQIFRMLAAILWIGNVSFIENEEGNAQVRDTSVTDFVAYLLQIDSQLLIKSLVERIMETNHGMKRGSVYHVPLNIVQADAVRDALAKAIYNNLFDWIVSRVNKSLQAFPGAEKSIGILDIYGFEIFEHNSFEQICINYVNEKLQQIFIQLTLKSEQETYEREKIQWTPIKYFDNKVVCDLIEARRPPGIFAAMNDSVATAHADSNAADQAFAQRLNLFTTNPHFDLRSNKFVIKHYAGDVTYDIDGITDKNKDQLQKDLVELIGTTTNTFLATIFPDTVDRESKRRPPTAGDKIIKSANDLVETLSKAQPSYIRTIKPNETKSPNDYDDRQVLHQIKYLGLQENVRIRRAGFAYRQVFEKFVERFYLLSPHCSYAGDYTWQGDTLDAVKYILQDSSIPQQEYQLGVTSVFIKTPETLFALEHMRDRYWHNMAARIQRAWRRFLQRRIDAATKIQRTIRERKEGNKYEKLRDYGTKVLGGRKERRSMSLLGYRAFMGDYLSCNESKSKGAYIKRQVSIKEKVIFSIHGEALHTKFGRSAQRLKKTFLLTPTTLYIVGQTLVQNAMTYTQDYKIDVRNIQAVSLTNLQDDWVAIKLASSGQPDPLINTYFKTELITHLKRLNDKIQIKIGSAIEYQKKPGKLHSVKCQINESAPKYGDIYKSSTISVRRGNPPNSQVHKKPRKKSSISSGYHASSSQATRRPVSIAAAQHVPTAPASRHSKKPAPPPPGMQNKAATRRSVPNPASTLTASQSNARPSPPTAATRATPAATPAAAAMGSGRQANIPPPPPPPPPSSKPKEPMFEAAYDFPGSGSPSELPLKKGDVIYITREEPSGWSLGKLLDGSKEGWVPTAYMKPHSGNNNIPTPPQNRDVPKPVLNSVQHDNTSANVIPAAAQASLGDGLANALAARANKMRLESDDEEANEDEEEDDW",0.9175,0.7054,–,–,–,Ratio (Deletedscore / WTscore) (bait BOI2): 0.9032; Ratio (Deletedscore / WTscore) (bait HSE1): 0.9954; Ratio (Deletedscore / WTscore) (bait NBP2): 0.9518; Ratio (Deletedscore / WTscore) (bait PIN3): 0.6702
"YHR064C_1 (protein, UniProt P38788 1-538, looked up) Ribosome-associated complex …: MSSPVIGITFGNTSSSIAYINPKNDVDVIANPDGERAIPSALSYVGEDEYHGGQALQQLIRNPKNTIINFRDFIGLPFDKCDVSKCANGAPAVEVDGKVGFVISRGEGKEEKLTVDEVVSRHLNRLKLAAEDYIGSAVKEAVLTVPTNFSEEQKTALKASAAKIGLQIVQFINEPSAALLAHAEQFPFEKDVNVVVADFGGIRSDAAVIAVRNGIFTILATAHDLSLGGDNLDTELVEYFASEFQKKYQANPRKNARSLAKLKANSSITKKTLSNATSATISIDSLADGFDYHASINRMRYELVANKVFAQFSSFVDSVIAKAELDPLDIDAVLLTGGVSFTPKLTTNLEYTLPESVEILGPQNKNASNNPNELAASGAALQARLISDYDADELAEALQPVIVNTPHLKKPIGLIGAKGEFHPVLLAETSFPVQKKLTLKQAKGDFLIGVYEGDHHIEEKTLEPIPKEENAEEDDESEWSDDEPEVVREKLYTLGTKLMELGIKNANGVEIIFNINKDGALRVTARDLKTGNAVKGEL",0.9929,–,–,–,–,Ratio (Deletedscore / WTscore) (bait BUD14): 0.7471
"YER008C_1 (protein, UniProt P33332 1-1336, looked up) Exocyst complex component SEC3: MRSSKSPFKRKSHSRETSHDENTSFFHKRTISGSSAHHSRNVSQGAVPSSAPPVSGGNYSHKRNVSRASNSSQTSNFLAEQYERDRKAIINCCFSRPDHKTGEPPNNYITHVRIIEDSKFPSSRPPPDSKLENKKKRLLILSAKPNNAKLIQIHKARENSDGSFQIGRTWQLTELVRVEKDLEISEGFILTMSKKYYWETNSAKERTVFIKSLITLYIQTFEGHVPELVNWDLSLFYLDERSYQRAVITNRPGSVSPIKSPTSNFTTNTTQSVGSVPFSAPTERTRRSETESVNPVSTPASVEYHAGMKSLNKAPYSSNSTLNEVNKRYELEQQQQQEEAELRRLEEQKRLQLQKENEMKRLEEERRIKQEERKRQMELEHQRQLEEEERKRQMELEAKKQMELKRQRQFEEEQRLKKERELLEIQRKQREQETAERLKKEEQEALAKKEEEEKSKRNKVDNESYTQEINGKVDNLLEDLNAVLAEETETTPTMQNGTYVPERSTARAHDQLKKPLNIAKVESLGGSDLNDSISLSDEIAGLNTSNLSGEDQDEKNDLSFEKGDEVRYSNNFEGEAPHVYHEVSIIQEEAPAVSQKLILPEENNESEALIESKEEIKTMENIDDEVLLEILTDINWSIEDDADSMIERIDLRLAETEYLFNQNLLSLQKIGPNIRPYEDKVNDECHRIIPTLSLFLMEMSNFSNDIENVESQDNGLQVESANKKLLWNTLDELLKTVSLDEISLNQLLECPIREKNLPWMENQLNLLLKAFQAIGSDGNEVEYNLREISGLKQRLQFYEKVTKIFLNRIVEEMQKKFSNIRGQDISHDQMIRILTTLLIFSPLILFCKEISQKSYQAIVENWNVSIQPVYMELWTKKISQLQGIDTNDEKMNELSLSQLLNEWDTFRKERKTNDINPVFKNSFSLLTECLQTMRQECIVYQNFVEVFFHISSKHNFEEYIKHFNDPDAPPILLDTVKVMQSDREAAVIETQLVSRIFQPIVTRLSSYFVELVKAEPTVAPALTFYLENEIKSLESSNHEFLLSAVTRMYTQIKQVWSDNVEEQVLHFERISNATTNGEILPGILDLPVGLKNSEDLFQFAKRSMDIKDTDEGYESIELMNSSFRKLSIAATRSITHKEVNSSINPNLSDTAALNNDYMETISLLVNSNWLTEMLSMLNFNKDGIFDTSLQNVKKVFDVEKESYASFLLRDTMPKLTAFVYGVSNIIENTNNVNMTNPSRWAAYSRQNLENILLAYTSHEIETLVKRLHTHMVNDFGYHQENAINNVLCDKLWSCIQGQTVSLYLKLYTVIDKHYRGTNIRFTKNDIISAFEEYKNA",0.9745,0.478,0.6394,–,–,Ratio (Deletedscore / WTscore) (bait LSB3): 0.7503
"YCR088W_1 (protein, UniProt P15891 2-592, looked up) Actin-binding protein: ALEPIDYTTHSREIDAEYLKIVRGSDPDTTWLIISPNAKKEYEPESTGSSFHDFLQLFDETKVQYGLARVSPPGSDVEKIIIIGWCPDSAPLKTRASFAANFAAVANNLFKGYHVQVTARDEDDLDENELLMKISNAAGARYSIQTSSKQQGKASTPPVKKSFTPSKSPAPVSKKEPVKTPSPAPAAKISSRVNDNNDDDDWNEPELKERDFDQAPLKPNQSSYKPIGKIDLQKVIAEEKAKEDPRLVQKPTAAGSKIDPSSDIANLKNESKLKRDSEFNSFLGTTKPPSMTESSLKNDDDKVIKGFRNEKSPAQLWAERKAKQNSGNAETKAEAPKPEVPEDEPEGEPDVKDLKSKFEGLAASEKEEEEMENKFAPPPKKSEPTIISPKPFSKPQEPVKAEEAEQPKTDYKKIGNPLPGMHIEADNEEEPEENDDDWDDDEDEAAQPPLPSRNVASGAPVQKEEPEQEEIAPSLPSRNSIPAPKQEEAPEQAPEEEIEEEAEEAAPQLPSRSSAAPPPPPRRATPEKKPKENPWATAEYDYDAAEDNELTFVENDKIINIEFVDDDWWLGELEKDGSKGLFPSNYVSLGN",0.8735,–,–,–,–,–
"YCR030C_1 (protein, UniProt P25623 1-870, looked up) Suppressor of yeast profilin …: MTEQRTKYADSILTTKSPYEATETIRIRLSQVKLLNKDFYLLFKELANLKRNYAQQLRKIIAENEDITKILNAQMIESNVLTPQEMSAFRFNSLGELRNVWDTVIEELKSDLKSSTEYYNTLDQQVVRELKESVENNTSWRESKDLHSKLSKNAASIEHYSKNNENSSHLEEARRQWDQQSPYLFELFETIDYNRLDTLKNCMLRFQTSFSDYLLNTTKECETVMTKFLAFEPQSEIDRFAKDASQYNFQLSSSSKEVVPNNASPASATGARPVSVSNGAANTEREKKSPQKDKRKSAFGNIGHRLASASSSLTHNDLMNNEFSDSTNNSSLKSKKSSHTLRSKVGSIFGRNKTKNKRQQQSSSNSHIQASITETPNNSSTRVSSTATSSIYQKQRRPTYSSSKSNNWTPGEASDTPPLPPHATPKNVDAPVTADTPPAQTFTPSEVPPSTPQQSSPPTAKEPDSSNLPKTVPISISQPPLQPQSKTKPLPVEPASPSISLPTATVDNQPSGQVDSRPLHIRAPALPPSRKQNFIHNRDSQLYDSLPNHGSGATPTSSSLSSIPQERPVSTLSSQITGELRELNPQATGSSTSLVGQSLFQHSSLDTSQFGLNASIAEVLNASFKDGMLQNSQLIGEIALNYLPNSVMNSPLPIGINLRINNGAKFEKVILNQAFIERVAPEEFKVNPSFIDSRTLGAIKYSIKEPIAPIVIHPVWRFESHQASVVLTVKMSPSLPDEISQIVIEDLVVFVNIDGANATSALSKPQGSFSKEKKRITWRFKEPVVLTRNGEGQRLIARFITDGLAHESAKGVITKFTISETDNVALPHSGAGSGITLTCQELDENNPFGGEWLDVNTKRTLTTGNYHGLA",1.033,0.5499,0.6932,0.7978,0.5102,–
"YKL051W_1 (protein, UniProt P35735 1-353, looked up) Protein SFK1: MIQFKSPGNWLFIVPWIAFIPWYGMLIAMLICWASQGHPIYWFMHSEQFPVYISDIGATNLRPLFISCAGWQGLGYVITVALEFFQRSGYLPFQLKKKDPSISDSTSYAEKLHSGKYLMPPYYTKDERNLIFAAFVLGSIGELALLFSSIFSTALYHRVHIAMVSVFVVFMFLSTCCLIAEYFLMGRHYASVHPLASPHFNPQSSEKSFNQDYNTVDELPWYKWKGHVWNKFTISATLKVIWLTLAVVWAICFGAINDRSKSACFEWLLAFWFGIIFMILSADFYLGGRYRQSRYFNHVESFSGYYKYDKALGLYHSEDVLPSDDNAGVIATETASSNIYNNSSSNESIQVVV",1.076,0.4799,–,0.5607,0.761,–
